For this test, the target named is LssaCA-His (L. striatellus salivary carbonic anhydrase lacking the signal peptide, C-terminal His tag) (Laodelphax striatellus). Put plainly: MST; 10 µM LssaCA^sp- (His-fusion) labelled with NT-647 (RED-NHS), added to serially diluted GST-NP or MBP-OsTLP^sp-; initial concentration 40 µM, 0.1% (v/v) Tween 20; Monolith NT.115; KD Fit.

The term Kd denotes the free concentration of one partner at which half of the binding sites on the other are occupied at equilibrium, for simple one-to-one binding. A higher Kd goes with weaker binding.

For the substance “MBP-OsTLP (Oryza sativa thaumatin-like protein without its signal peptide, N-terminal MBP fusion) (enzyme)”, the Kd turned out to be 1.3 µM.

Turning to “GST-NP (rice stripe virus nucleocapsid protein, GST fusion) (natural protein)”, the Kd was determined as 2.7 µM.

Values taken from paper PMC12774414.
